Publication PMC8041783

Target: His-FliI(R33A) (Salmonella enterica) (UniProt P26465)

Substance: His-FliI(R33A) (from UniProt P26465 1-456) (enzyme)
- ATPase activity (Malachite Green assay, 4 mM ATP) at 17 to 85 nM FliI(R33A) (nmol of phosphate min^−1 μg^−1): 1.21
